Test results published in the supplement of paper PMC9112550, “Optimization of the antimicrobial peptide Bac7 by deep mutational scanning” (BMC Biology, 2022).

System: Escherichia coli TOP10
Experiment: shrunken log2 fold change of peptide-encoding DNA abundance (4.5 h post-induction vs induction); higher = less antimicrobial activity (less host growth inhibition)
Conditions: time post-induction: 4.5 h; library: site-saturation at positions 5, 18, 19, 20
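Further: peptides expressed intracellularly from a pBAD plasmid library in pooled LB shake-flask culture, induced with 0.3% L-arabinose, DNA abundance read by NGS, three biological replicates, DESeq2 with apeglm shrinkage.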

Sequence | shrunken log2 fold change
RRIRSRPPRLPRPRPRPSKLPRP | -0.398
RRIRKRPPRLPRPRPRPPWKPRP | 0.173
RRIRSRPPRLPRPRPRPSNMPRP | -1.05
RRIRNRPPRLPRPRPRPYQNPRP | 0.0156
RRIRARPPRLPRPRPRPCNMPRP | -0.253
RRIRMRPPRLPRPRPRPYEDPRP | 0.477
RRIRHRPPRLPRPRPRPKFAPRP | 0.00298
RRIRIRPPRLPRPRPRPRLKPRP | 0.0139
RRIRHRPPRLPRPRPRPAFIPRP | -0.037
RRIRERPPRLPRPRPRPGNIPRP | -0.989
RRIRWRPPRLPRPRPRPWMCPRP | -0.174
RRIRTRPPRLPRPRPRPLMYPRP | -0.736
RRIRKRPPRLPRPRPRPTQTPRP | 1.25
RRIRERPPRLPRPRPRPNSHPRP | -0.8
RRIRHRPPRLPRPRPRPVVEPRP | -0.0145
RRIRERPPRLPRPRPRPYAYPRP | -0.000687
RRIRKRPPRLPRPRPRPMHMPRP | -0.331
RRIRFRPPRLPRPRPRPFRHPRP | 0.0504
RRIRIRPPRLPRPRPRPNCYPRP | -0.923
RRIRVRPPRLPRPRPRPASTPRP | -0.311
RRIRQRPPRLPRPRPRPFMRPRP | -0.0303
RRIRARPPRLPRPRPRPCISPRP | 0.0706
RRIRCRPPRLPRPRPRPWPPPRP | 1.08
RRIRTRPPRLPRPRPRPFMPPRP | -0.618
RRIRIRPPRLPRPRPRPRGGPRP | 0.217

Sequence | shrunken log2 fold change
RRIRMRPPRLPRPRPRPENIPRP | 0.0472
RRIRHRPPRLPRPRPRPGNLPRP | -0.0177
RRIRHRPPRLPRPRPRPTATPRP | 0.39
RRIRDRPPRLPRPRPRPAERPRP | -0.0412
RRIRMRPPRLPRPRPRPRTSPRP | 0.623
RRIRGRPPRLPRPRPRPNQIPRP | 0.109
RRIRYRPPRLPRPRPRPIGKPRP | 0.0104
RRIRWRPPRLPRPRPRPSPFPRP | -0.245
RRIRSRPPRLPRPRPRPGPYPRP | -0.325
RRIRPRPPRLPRPRPRPPACPRP | 0.207
RRIRWRPPRLPRPRPRPTEGPRP | 0.0765
RRIRNRPPRLPRPRPRPSKTPRP | -0.454
RRIRHRPPRLPRPRPRPGMRPRP | 0.163
RRIRRRPPRLPRPRPRPTMAPRP | 0.392
RRIRCRPPRLPRPRPRPNEHPRP | -0.553
RRIRWRPPRLPRPRPRPYHSPRP | -0.215
RRIRHRPPRLPRPRPRPPPVPRP | 0.658
RRIRIRPPRLPRPRPRPGKCPRP | -0.215
RRIRPRPPRLPRPRPRPGLCPRP | 0.399
RRIRCRPPRLPRPRPRPHVDPRP | -0.617
RRIRQRPPRLPRPRPRPYKLPRP | -0.603
RRIRKRPPRLPRPRPRPPWFPRP | 0.309
RRIRHRPPRLPRPRPRPHQEPRP | -0.0212
RRIRRRPPRLPRPRPRPYIFPRP | -0.639
RRIRVRPPRLPRPRPRPEIFPRP | 0.00503

Sequence | shrunken log2 fold change
RRIRLRPPRLPRPRPRPQHLPRP | -0.223
RRIRHRPPRLPRPRPRPDWAPRP | -0.0995
RRIRFRPPRLPRPRPRPWSMPRP | -0.548
RRIRARPPRLPRPRPRPTNCPRP | 0.269
RRIRYRPPRLPRPRPRPAKKPRP | 0.0499
RRIRIRPPRLPRPRPRPCFIPRP | -0.503
RRIRRRPPRLPRPRPRPVNNPRP | -0.12
RRIRERPPRLPRPRPRPVITPRP | -0.145
RRIRTRPPRLPRPRPRPLTRPRP | 0.252
RRIRRRPPRLPRPRPRPIVTPRP | 0.0446
RRIRFRPPRLPRPRPRPNISPRP | -0.503
RRIRHRPPRLPRPRPRPFPIPRP | 0.0165
RRIRYRPPRLPRPRPRPHFPPRP | -0.00195
RRIRVRPPRLPRPRPRPNPGPRP | -0.131
RRIRERPPRLPRPRPRPWFEPRP | -0.0941
RRIRHRPPRLPRPRPRPKSAPRP | -0.0502
RRIRFRPPRLPRPRPRPGMCPRP | -0.0231
RRIRQRPPRLPRPRPRPTYVPRP | -0.161
RRIRRRPPRLPRPRPRPFGTPRP | 0.0468
RRIRFRPPRLPRPRPRPLWGPRP | 0.251
RRIRYRPPRLPRPRPRPVCAPRP | -0.232
RRIRWRPPRLPRPRPRPGWVPRP | 0.224
RRIRARPPRLPRPRPRPTCFPRP | 0.57
RRIRFRPPRLPRPRPRPWEPPRP | -0.373
RRIRDRPPRLPRPRPRPCIEPRP | -0.158

Sequence | shrunken log2 fold change
RRIRLRPPRLPRPRPRPKMIPRP | -0.378
RRIRARPPRLPRPRPRPRTMPRP | 0.403
RRIRLRPPRLPRPRPRPVAGPRP | 0.0563
RRIRHRPPRLPRPRPRPWSPPRP | -0.697
RRIRTRPPRLPRPRPRPHSLPRP | 0.0291
RRIRHRPPRLPRPRPRPVTPPRP | -0.00938
RRIRVRPPRLPRPRPRPSEKPRP | 0.268
RRIRQRPPRLPRPRPRPQWKPRP | -0.0075
RRIRERPPRLPRPRPRPCPDPRP | -0.0864
RRIRLRPPRLPRPRPRPMWRPRP | 0.194
RRIRGRPPRLPRPRPRPAMWPRP | 1.02
RRIRARPPRLPRPRPRPCKHPRP | -0.116
RRIRLRPPRLPRPRPRPRVNPRP | -0.155
RRIRLRPPRLPRPRPRPMYIPRP | -0.172
RRIRTRPPRLPRPRPRPTPPPRP | 0.589
RRIRLRPPRLPRPRPRPEDEPRP | 0.00911
RRIRNRPPRLPRPRPRPSSFPRP | -0.127
RRIRSRPPRLPRPRPRPYFQPRP | -0.951
RRIRRRPPRLPRPRPRPSSWPRP | -0.162
RRIRKRPPRLPRPRPRPFPSPRP | 0.175
RRIRMRPPRLPRPRPRPYMWPRP | -0.38
RRIRCRPPRLPRPRPRPGFRPRP | 0.498
RRIRIRPPRLPRPRPRPKPFPRP | -0.00302
RRIRARPPRLPRPRPRPATNPRP | 0.317
RRIRARPPRLPRPRPRPCWVPRP | 0.237

Sequence | shrunken log2 fold change
RRIRLRPPRLPRPRPRPVTGPRP | -0.121
RRIRARPPRLPRPRPRPNATPRP | 1.97
RRIRCRPPRLPRPRPRPGCYPRP | -0.501
RRIRNRPPRLPRPRPRPRTHPRP | -0.184
RRIRARPPRLPRPRPRPLAIPRP | 0.397
RRIRCRPPRLPRPRPRPIDRPRP | -0.0643
RRIRRRPPRLPRPRPRPQMVPRP | -0.0843
RRIRSRPPRLPRPRPRPADVPRP | 0.438
RRIRDRPPRLPRPRPRPHVSPRP | 0.27
RRIRGRPPRLPRPRPRPMCNPRP | 0.31
RRIRGRPPRLPRPRPRPKPCPRP | 0.422
RRIRTRPPRLPRPRPRPMNLPRP | -0.348
RRIRDRPPRLPRPRPRPSAHPRP | 0.127
RRIRIRPPRLPRPRPRPLSEPRP | -0.0382
RRIRPRPPRLPRPRPRPKAEPRP | 0.279
RRIRYRPPRLPRPRPRPQMYPRP | -0.286
RRIRPRPPRLPRPRPRPFPGPRP | -0.226
RRIRSRPPRLPRPRPRPPMTPRP | 0.243
RRIRARPPRLPRPRPRPQKMPRP | -0.000461
RRIRPRPPRLPRPRPRPKITPRP | -0.105
RRIRARPPRLPRPRPRPWYWPRP | 0.0283
RRIRIRPPRLPRPRPRPEHNPRP | -0.505
RRIRYRPPRLPRPRPRPYYLPRP | -0.31
RRIRGRPPRLPRPRPRPSTEPRP | 1.14
RRIRDRPPRLPRPRPRPWKEPRP | -0.0075
